From patent US20180120332A1 (CLEMSON UNIVERSITY RESEARCH FOUNDATION, published 2018)
Ends that are not written are not given here.

B1: α1 peptide (TFALRGDNP), RGD peptide derived from laminin α1 subunit (peptide)
peptide: TFALRGDNP
modifications: also: N-terminus conjugated to oxidized alginate (EDC-NHS) or methacrylated and co-polymerized with PEGDA
B2: RGDS peptide (peptide)
peptide: RGDS
modifications: also: N-terminus conjugated to oxidized alginate (EDC-NHS) or methacrylated and co-polymerized with PEGDA
B3: RGDSP peptide (peptide)
peptide: RGDSP
modifications: also: N-terminus conjugated to oxidized alginate (EDC-NHS) or methacrylated and co-polymerized with PEGDA

The binders below were run against αvβ3 integrin on human umbilical vein endothelial cells (HUVECs) (human, UniProt P06756 31-1048; P05106 27-788) (assay: cell-based or functional assay).
Chain of αvβ3 integrin on human umbilical vein endothelial cells (HUVECs) (P06756 31-1048, chain 1 of 2): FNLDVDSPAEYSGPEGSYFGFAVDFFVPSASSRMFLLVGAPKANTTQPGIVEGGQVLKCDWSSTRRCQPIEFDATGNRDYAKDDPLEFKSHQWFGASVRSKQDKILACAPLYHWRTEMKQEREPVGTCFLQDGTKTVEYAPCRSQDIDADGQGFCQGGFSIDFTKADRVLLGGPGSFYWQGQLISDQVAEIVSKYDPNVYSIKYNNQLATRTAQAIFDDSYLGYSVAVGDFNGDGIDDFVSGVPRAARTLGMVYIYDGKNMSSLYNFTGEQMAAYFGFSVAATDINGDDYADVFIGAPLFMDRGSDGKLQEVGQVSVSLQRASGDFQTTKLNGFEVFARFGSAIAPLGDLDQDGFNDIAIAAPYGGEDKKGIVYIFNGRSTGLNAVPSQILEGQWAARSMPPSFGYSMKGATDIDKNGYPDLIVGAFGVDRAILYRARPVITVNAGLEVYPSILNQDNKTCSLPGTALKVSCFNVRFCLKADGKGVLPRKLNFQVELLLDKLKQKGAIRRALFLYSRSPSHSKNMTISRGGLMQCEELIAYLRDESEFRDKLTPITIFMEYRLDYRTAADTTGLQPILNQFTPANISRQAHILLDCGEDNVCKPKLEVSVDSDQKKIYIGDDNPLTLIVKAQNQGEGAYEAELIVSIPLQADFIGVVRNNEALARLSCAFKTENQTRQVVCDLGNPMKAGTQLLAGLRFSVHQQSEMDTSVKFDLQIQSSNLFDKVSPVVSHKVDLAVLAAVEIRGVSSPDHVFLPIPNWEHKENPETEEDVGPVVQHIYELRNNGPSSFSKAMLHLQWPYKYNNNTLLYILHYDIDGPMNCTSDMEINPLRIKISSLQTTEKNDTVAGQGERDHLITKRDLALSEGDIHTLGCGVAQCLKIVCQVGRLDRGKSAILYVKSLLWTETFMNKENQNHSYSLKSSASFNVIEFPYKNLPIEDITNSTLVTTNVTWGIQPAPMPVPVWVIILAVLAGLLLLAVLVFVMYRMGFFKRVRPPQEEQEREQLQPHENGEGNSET
Chain of αvβ3 integrin on human umbilical vein endothelial cells (HUVECs) (P05106 27-788, chain 2 of 2): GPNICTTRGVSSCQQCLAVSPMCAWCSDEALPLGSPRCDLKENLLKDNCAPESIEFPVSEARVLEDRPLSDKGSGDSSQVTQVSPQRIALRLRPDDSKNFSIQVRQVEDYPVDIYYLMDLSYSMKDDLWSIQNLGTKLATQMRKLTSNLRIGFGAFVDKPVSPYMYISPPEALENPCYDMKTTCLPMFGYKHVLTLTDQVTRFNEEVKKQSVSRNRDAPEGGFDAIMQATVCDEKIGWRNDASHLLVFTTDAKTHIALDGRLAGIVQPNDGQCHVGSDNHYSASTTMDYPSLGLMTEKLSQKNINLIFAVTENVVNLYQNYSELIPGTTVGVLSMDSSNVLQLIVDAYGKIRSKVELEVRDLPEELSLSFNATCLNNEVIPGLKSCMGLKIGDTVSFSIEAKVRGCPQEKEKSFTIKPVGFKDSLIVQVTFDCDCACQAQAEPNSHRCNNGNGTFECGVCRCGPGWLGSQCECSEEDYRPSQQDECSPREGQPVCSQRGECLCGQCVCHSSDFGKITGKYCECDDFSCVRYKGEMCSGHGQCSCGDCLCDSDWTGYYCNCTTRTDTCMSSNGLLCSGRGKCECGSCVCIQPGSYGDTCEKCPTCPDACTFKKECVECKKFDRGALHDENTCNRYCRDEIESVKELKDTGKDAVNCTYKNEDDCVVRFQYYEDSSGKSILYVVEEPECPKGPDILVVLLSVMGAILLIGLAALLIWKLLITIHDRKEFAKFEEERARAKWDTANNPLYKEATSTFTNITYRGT
With B1 the “decrease in HUVEC adhesion on peptide functionalized alginate when αvβ3 integrin is blocked” value (“decrease in HUVEC adhesion” for short) was about 60%. For B2, the “decrease in HUVEC adhesion” value was about 35%. In the case of B3, the “decrease in HUVEC adhesion” value is reported as about 35%.
